Assay results as given in a protein production outcome set (Wang et al. 2014).

Experiment: label from the status in PepcDB records

| Sequence | protein production |
| --- | --- |
| MANQTVERQSWSNRLAYIMTVAGATVGFGATWRFPYLVGENGGGAYVFLFCIAMIVIGIPMILVENVIGRRMKVNAIDAFSGQANGKKIASGWKILGYMGLLGAFGILSYYMVLGGWVLNYIGSLISGNLDLSSPITVETTTAYYQNSIQNSPITILCYAALFVLINFFILTKGIVDGIERSVKYLMPILFIFLLVMVVRNVTLPGATDGISFYLMPDFSKITPKLFVFVLGQVFFALSLGFGVLITLSSYLDKNENLIKTATITGIMNTFIAVLAGFMIFPSLFSFGVAPNSGPTLVFQSLPIVFSNMWGGTIFAIIFFSLLIVAALTTSLTIYEVIITALQEKTKISRKTAIGITLSSTFLIGNIPSVLGDNIWKDVTIMGKSIFDVFDYISGNILFILTALGSAIFVGYVLKDEAKAELGANKTLTTIWFNYVRFVIPIIIIVIFFNSL | failed |
| MNFNYQTAWPSLSRSFEWSPAMTSSSVNPAEKFDRSRADEYARQSRIALAGYDACHDLAACMLAASLGEGRAAHILAVGAGGTAQEIIAMASLEPGWRFTAVDPSAPMLETARQQLQAQGLLERTEVRLATVDELAADEPFDGATLIGVLHHLPGDEAKRQLLRAIARRLKPGAPLIVAGNHYAYAGQPLLLAAWGQRWRQQGATADEVHAKLGKILQGADPPHSEAAVQRLLEEGGFSAGTRFFSSLFWGAWLSRKRC | failed |
| MRIQIQKLSYRDIDSFIELLDVFEEVFEMKNFEMPSVEHLEELLGKDDFFVFVARSEGTIVGGLTAYSLTQYFSKSPLLYIYDVAVMKRHQRKGIGKKLIMGIKDYCKDSDIGEIIVQADEADEHAIEFYQSTGAKAAKVVQFYYALNG | failed |
| HMARSLYPLGVSRSLPPYRRTFNHQTFIFVKSILRLGVSMEEEEFDIREALANGEHLEKILIMAKYDESVLKKLIELLDDDLWTVVKNAISIIMVIAKTREDLYEPMLKKLFSLLKKSEAIPLTQEIAKAFGQMAKEKPELVKSMIPVLFANYRIGDEKTKINVSYALEEIAKANPMLMASIVRDFMSMLSSKNREDKLTALNFIEAMGENSFKYVNPFLPRIINLLHDGDEIVRASAVEALVHLATLNDKLRKVVIKRLEELNDTSSLVNKTVKEGISRLLLLEGHSSS | not failed |
| MSSTPATPAISPTQQSALALWRMRLITLLPLGAIAWISMVLADHPAIAHYGLSALTLAMGAGMVAANTMPKHWLAPLAPGMQFARHHLLRLGVALYGLRLTFGAIAALGVGGVVVPLTMLVATLLFGTWVGSSFFGLSRREAILVSAGSAVCGAAAAIAVSSVVRTDDRQTAVAVATVVLFGTVGMLLYPWLYELATQHWHLAISERSFGIFTGATLHEVAQVIASGKMVSDGAADAAVVAKMVRVLALGPLLLVMALWPRTSWSQASGGSRNLHGLLRSVPWFALGFVAVMALNSAQMVPADWKPALIGFDNWMLACAMLAIGLHTRIGDLLRAGRKPLALAGVLFLFLMVVGAALCALLV | failed |
| MTKIACVIVTYNRKQLLEEALNSVLIQTESPEYVFVIDNASTDGTEKYINDKFNFDNRQWHYVRCSQNLGGSAGFAQGMRLALQTDCSWISISDDDAIFEPGYFAALRKGIKQYPEQSVFSGSVLLPDGKHDMMHREVITNSATLTVRCVTDETYKHDFSYDIFSFVGILLSRQVIEAIGLPEQDYFIRFDDFEYAVRALKFGRFMNLSAAKVLHKTTYTRSAIAPWKEYYVMRNRIALLIKHRGNNHTVRWYCRRFLLRKLLAILLFSNRRRQARSLVNAYVKGYQDGWHARLGRQLAFLPS | failed |
| MGFTELNSVEHYIIHQISGVNLNDAQCKNQVSEPQATYALQWQFKSSEQLGRDVNEVLVESELVKALIRLNPEIEANPHLADEVIHKLRAILISVNQVGLVKANEEFFAWMTGEKTMPFGENNRHVPVKLIDLEDLTRNGYVVTNQFRIHHRETKIPDVVLMINGIPVVVGEAKTPIRPSVSWLDGAHEVHNIYENAVPQLFVPNILSFATEGKELFYGAIRCPLEFWAPWRTEEDDNSKGIGQVSKALGLTEIGKELIDLLSPVRLLDIMRNFSLFTTNKKKQRIKVIPRFQQYEGANKIVERVIEGKIKKGLIWHFQGSGKSLLMVFAAQKLRRTAQLKSPTVIVLVDRTDLDTQISGTFNAADVANVESTDSIKELQRMLERDTRKIIISMIHKFRDAKPNMNTRENIIVLVDEAHRTQEGDLGRQMRAALPNAFLFGLTGTPVNKADKNTFWAFGAEEDKGGYMSRYTFHDSIRDEATLPLHFEPRLVDVHVDKEALDKAFKDFKESAALSDEEADALNQKSAKMSAFLKSPERVEKIVEDIAIHFMDKVEPHGFKAMVVTPDREACVQYKEELDKHFPESASKVVISTSANDDFEFKQKWGVDKSQQEKLVDEFNDEKSDLKFLVVTAKLLTGFDAPICQTMYLDKSIKDHTLLQAICRTNRLYPNKTFGCIVDYFGVFDDAAKALEFDEESVQQVISNLSELRSKLPQAMQDTLAHFIGVDRSLEGFEGLEAAQNAIGDNDKKDAFALDFKYLAKLWESLSPDSVLDEYNEDYKWLAQVYESVKPASDNIGKLLWLALGAQTTQLIHDNVHVGDVHNLEEFVLDADVIENIFNNPDPRKIKQLEKELAKRFKDRGDLPVFKSLSERLEELRDKAEKGLIASIDFVKELCKIAKETVQAEKDLDDELQEKTPQAALTDLFLELKDDQTPAVVERIVTDIDAIVRIVRFPGWQTTTGGEREVQKSLRKALLKYKLHTDQTLFDRAYGYIKEYY | failed |
| MEVHAADQYLVAPGEADLLEVHARLAGTGLFPPFPPVELPGGVGGLVARGGFAQTFFFPAEVLGLTFRTPKGRRVRAGGVVVKNVQGYDLVRLFVGSFGLLGRAEEVVLRLRPGRAQAFLRRPFSGSFPRLVPTPRFLFALEDEEGPWLYAYHFGHPKEVERFREAFGGEEARPLDLRPRFPRGLGLGEGPLWDLRFRYQDGGASPPPPPAFLRLARVL | not failed |
| MEGYSRNGEISPKLLDLMIPQERRNWFHDEKNSVFKTEEKKLELKLGPPGEEDDDESMIRHMKKEPKDKSILSLAGKYFSPSSTKTTSHKRTAPGPVVGWPPVRSFRKNLASGSSSKLGNDSTTSNGVTLKNQKCDAAAKTTEPKRQGGMFVKINMYGVPIGRKVDLSAHNSYEQLSFTVDKLFRGLLAAQRDFPSSIEDEKPITGLLDGNGEYTLTYEDNEGDKMLVGDVPWQMFVSSVKRLRVIKTSEISSALTYGNGKQEKMRR | failed |
| MAERLGILVGGGPAPGINSVISSVTIEAINNGLEVIGIYDGFKHLVEGKTNMVKKLSIEDVSRIHIEGGSILRTSRVNPAKSEETLEKTVQTLKKLGIKYLVTIGGDDTAFSASKVCERSKGEIKVVHVPKTIDNDLPLPENMPTFGFETARHVATELVYNLMQDSRTTNRWYFVAMMGREAGHLALGVGKAASATITIIPEEFKEGVTLEEVCDVLDGAILKRKLMGRDDGVAVIGEGIAEKMDPEELANIPGVIVEKDPHGHLRLAEIPLATILKRAIERRYAERGERIHIVDVTIGYELRSARPIPFDIVYTRTLGYGAVRFLLGDYSDLPGGMVCVVGGRIKILPFDAFMDPKTGRTKVRVVDVRSEDYRVARKYMIRLEKKDLEDPETLEKLAKLAKMEPEEFKKKYWHTTELP | failed |
| MGAWRFWWDSTRRFYKNWGSYVALIFSTNLVISYLAIPFFNWVLEMLLKWQRVSYVSYTNIGSIIIHQPLAALGMVAILLAIIILVYWQFAFLLLGIMNIFRGRPQTVRAVLRSTVTSLTGTSPSTFLFFIGYFIVILPFGSFIFTTPLLNKAKIPAFIVSYLMENPWMTLGLGCFYLLAGYLGIRLISLLPLMIVDRLPWKTAVTRSWQQTRHHLWRYLWTMIVTLFMIFLIVTTIYTLIYVAQLQFDKTSFAMAAATVNLFIMEAITEIIICYTTAIFMMLIIVCYRQDFTLLRQQPQYFNEAPRLRKLTRASVAIGLLLATSLLVAVNLVYLNGLVITKPIMISHRGVDNGNGVQNTIPALIKTSKEHPDYVEMDIQVTKDHQFVVMHDPTLKALAGVKKKPSQLTLKQLEKITVRENGYQAKIPSFDAYLKAAHKHHQKLLVEIKTSSAYTAADTKRFIDRYGATLLAHHDQVHTLSFKVMRDLKRLDQKQFVSYILPYNLTFPHTVANGYTMEVTTLNDQFVDKADRNHKTVYAWDIDNTDQMDQMMFMGVTGVVTDNLTEMQQEVKSNTDHPSYAKLLLTFMNELSLTSNE | failed |
| MEKFQENNILEDKKVCINENEEAWNKETYNAWIKRFGTAKEAAEKIKSMPEKKLNVLLDKFGDVKGKKIFNLMGSNGNKAVALALLGADVTVVDFSEGNRRYALDLAEACGVKINFILSDVLRMPKEVMSGDYDIVFAEMGILHYFSDLSPFMNVIHSLLKDGGKAVLRDFHPVSTKLITSRGSTAKVRKHKVTGDYFDTSLEEKEVAYSKYLEEGEVEKVFLRKWNLGEIVTAVANTGLKIESLTEEPNLSSDVFDKGIPKTFTIVARK | failed |
